Source: article PMC3769348, “Secreted and Transmembrane 1A Is a Novel Co-Stimulatory Ligand” (PLoS ONE, 2013)

Biological target: T1, SECTM1B-Fc fusion protein (extracellular domain of murine SECTM1B fused to aglycosyl human IgG1 Fc) (mouse, UniProt Q9JL59 29-160, N-glycosylated)
T1 construct: Secreted and transmembrane 1B (SECTM1B), mouse, extracellular domain; The cDNA was cloned between a CD5 leader and the human IgG1 aglycosyl Fc in pEE12(CMV/T7)CD5Lhγ1; also called mSECTM1B-Fc; Secreted and transmembrane 1B; source: CHO-S cells, purified with protein G agarose (elution with glycine pH 2.0); not shown: Fc (human IgG1, aglycosyl mutant), C-terminal, kept
T1 sequence (looked up): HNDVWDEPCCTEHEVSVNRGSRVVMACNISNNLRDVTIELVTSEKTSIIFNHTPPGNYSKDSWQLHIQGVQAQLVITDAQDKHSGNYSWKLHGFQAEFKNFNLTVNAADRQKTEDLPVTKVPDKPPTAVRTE
Assay: SPR; BIAcore 3000, 25°C, CM5 chip; Fc fusion proteins held on separate flow cells by mouse anti-human IgG (SBH2) on amine-coupled rabbit anti-mouse antibody; Fc fusion proteins at 25 µM injected in HEPES-buffered saline pH 7.4 at 5 µl per minute
Details: both partners purified

B1: CD7-Fc fusion protein (extracellular domain of murine CD7 fused to aglycosyl human IgG1 Fc) (Fc fusion, mouse, UniProt P50283 24-150, looked up)
chain: QDVHQSPRLTIASEGDSVNITCSTRGHLEGILMKKIWPQAYNVIYFEDRQEPTVDRTFSGRINFSGSQKNLTITISSLQLADTGDYTCEAVRKVSARGLFTTVVVKEKSSQEAYRSQEPLQTSFSFP
modifications: N-glycosylated
notes: CD7, mouse, extracellular domain; The cDNA was cloned between a CD5 leader and the human IgG1 aglycosyl Fc in pEE12(CMV/T7)CD5Lhγ1; also called mCD7-Fc; source: CHO-S cells, purified with protein G agarose (elution with glycine pH 2.0); not shown: Fc (human IgG1, aglycosyl mutant), C-terminal, kept
  binding result: binds
